Test results as given in PMC12876063, “Rad51 determines pathway usage in post-replication repair” (Nature Communications, 2026).
Changes are numbered by the printed parent chain. Names and notes keep the numbering of the source. Values joined by “and” are separate entries in the source; they are usually repeats but may differ in a detail not shown here. Equal values may be shown once.

B1: Rad51 wild type protein (natural protein, S. cerevisiae, UniProt P25454 1-400, looked up)
chain: MSQVQEQHISESQLQYGNGSLMSTVPADLSQSVVDGNGNGSSEDIEATNGSGDGGGLQEQAEAQGEMEDEAYDEAALGSFVPIEKLQVNGITMADVKKLRESGLHTAEAVAYAPRKDLLEIKGISEAKADKLLNEAARLVPMGFVTAADFHMRRSELICLTTGSKNLDTLLGGGVETGSITELFGEFRTGKSQLCHTLAVTCQIPLDIGGGEGKCLYIDTEGTFRPVRLVSIAQRFGLDPDDALNNVAYARAYNADHQLRLLDAAAQMMSESRFSLIVVDSVMALYRTDFSGRGELSARQMHLAKFMRALQRLADQFGVAVVVTNQVVAQVDGGMAFNPDPKKPIGGNIMAHSSTTRLGFKKGKGCQRLCKVVDSPCLPEAECVFAIYEDGVGDPREEDE
notes: Rad51, Saccharomyces cerevisiae; native, untagged protein; Purified native and untagged; also called wild-type Rad51; wild type Rad51
B2: Rad51-E135D (natural protein, S. cerevisiae, UniProt P25454 1-400, looked up)
chain: B1 chain with E135D
notes: Rad51, Saccharomyces cerevisiae, with the single change E135D (isolated by mutagenic PCR); native, untagged protein; also called Rad51-ED; rad51-ED
B3: Rad51-K305N (natural protein, S. cerevisiae, UniProt P25454 1-400, looked up)
chain: B1 chain with K305N
notes: Rad51, Saccharomyces cerevisiae, with the single change K305N (isolated by mutagenic PCR); native, untagged protein; also called Rad51-KN; RAD51-KN

Legend:
[1] = target: T1, Rad51-ED (Rad51-E135D) E135D (Saccharomyces cerevisiae) (UniProt P25454); test: EMSA (salt titration); conditions: 3.33 uM Rad51, ATP, Mg2+; listed as label assigned from text (ED defect stronger); Kd EMSA: 35 mM Tris-acetate pH 7.5, 50 or 100 mM NaCl, 7 mM Mg acetate, 2 mM ATP, 1 mM DTT, 0.25 mg/mL BSA, 3 uM nt/bp DNA, 30 C 30 min; salt titration: 20 mM …
T1 sequence: B1 chain with E135D

[2] = target: T2, Rad51-KN (Rad51-K305N) K305N (Saccharomyces cerevisiae) (UniProt P25454); test: EMSA (salt titration); conditions: 3.33 uM Rad51, ATP, Mg2+; listed as label assigned from text (ED defect stronger); Kd EMSA: 35 mM Tris-acetate pH 7.5, 50 or 100 mM NaCl, 7 mM Mg acetate, 2 mM ATP, 1 mM DTT, 0.25 mg/mL BSA, 3 uM nt/bp DNA, 30 C 30 min; salt titration: 20 mM …
T2 sequence: B1 chain with K305N

[3] = target: T3, Rad51 wild type (Saccharomyces cerevisiae) (UniProt P25454); test: EMSA (salt titration); conditions: 3.33 uM Rad51, ATP, Mg2+, glutaraldehyde fixed; Kd EMSA: 35 mM Tris-acetate pH 7.5, 50 or 100 mM NaCl, 7 mM Mg acetate, 2 mM ATP, 1 mM DTT, 0.25 mg/mL BSA, 3 uM nt/bp DNA, 30 C 30 min; salt titration: 20 mM …
T3 sequence: B1 chain

[4] = target: T1, Rad51-ED (Rad51-E135D) E135D (Saccharomyces cerevisiae); test: EMSA; conditions: Kd EMSA: 35 mM Tris-acetate pH 7.5, 50 or 100 mM NaCl, 7 mM Mg acetate, 2 mM ATP, 1 mM DTT, 0.25 mg/mL BSA, 3 uM nt/bp DNA, 30 C 30 min; salt titration: 20 mM …
[5] = target: T2, Rad51-KN (Rad51-K305N) K305N (Saccharomyces cerevisiae); test: EMSA; conditions: Kd EMSA: 35 mM Tris-acetate pH 7.5, 50 or 100 mM NaCl, 7 mM Mg acetate, 2 mM ATP, 1 mM DTT, 0.25 mg/mL BSA, 3 uM nt/bp DNA, 30 C 30 min; salt titration: 20 mM …
[6] = target: T3, Rad51 wild type (Saccharomyces cerevisiae); test: EMSA; conditions: Kd EMSA: 35 mM Tris-acetate pH 7.5, 50 or 100 mM NaCl, 7 mM Mg acetate, 2 mM ATP, 1 mM DTT, 0.25 mg/mL BSA, 3 uM nt/bp DNA, 30 C 30 min; salt titration: 20 mM …
[7] = target: T4, GST-Rad55-His6-Rad57 complex (S. cerevisiae, UniProt P38953 1-406; P25301 1-460); test: pull-down; 100 nM GST-Rad55-His6-Rad57 with 100 nM Rad51 in buffer P (25 mM Tris-acetate pH 7.5, 10 mM magnesium acetate, 50 mM NaCl, 1 mM DTT, 10% glycerol, 0.01% NP-40), 25 ul, 1 h at room temperature; captured on BSA-treated glutathione agarose beads; immunoblot with anti-Rad51 and anti-GST; conditions: both partners purified
T4 construct: Rad55, Rad51 paralog of budding yeast; Rad57, Rad51 paralog of budding yeast; stored in 20 mM Tris-HCl pH 7.5, 0.2 M NaCl, 0.1 mM EDTA, 1 mM DTT, 50% glycerol; also called Rad55-Rad57; Rad51 paralog complex; source: purified as described (Liu et al. 2011b)
T4 sequence (looked up) 1: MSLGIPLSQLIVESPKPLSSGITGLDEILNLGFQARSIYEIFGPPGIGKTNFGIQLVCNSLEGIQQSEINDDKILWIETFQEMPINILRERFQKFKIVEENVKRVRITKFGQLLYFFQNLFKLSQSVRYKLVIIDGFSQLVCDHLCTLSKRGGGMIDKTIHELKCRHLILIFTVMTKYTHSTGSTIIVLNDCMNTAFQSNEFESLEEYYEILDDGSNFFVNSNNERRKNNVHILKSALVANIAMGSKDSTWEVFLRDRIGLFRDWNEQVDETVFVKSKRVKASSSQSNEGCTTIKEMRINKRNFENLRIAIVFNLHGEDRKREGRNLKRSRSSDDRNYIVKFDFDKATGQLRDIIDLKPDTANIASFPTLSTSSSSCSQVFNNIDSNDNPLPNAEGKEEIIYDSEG
T4 sequence (looked up) 2: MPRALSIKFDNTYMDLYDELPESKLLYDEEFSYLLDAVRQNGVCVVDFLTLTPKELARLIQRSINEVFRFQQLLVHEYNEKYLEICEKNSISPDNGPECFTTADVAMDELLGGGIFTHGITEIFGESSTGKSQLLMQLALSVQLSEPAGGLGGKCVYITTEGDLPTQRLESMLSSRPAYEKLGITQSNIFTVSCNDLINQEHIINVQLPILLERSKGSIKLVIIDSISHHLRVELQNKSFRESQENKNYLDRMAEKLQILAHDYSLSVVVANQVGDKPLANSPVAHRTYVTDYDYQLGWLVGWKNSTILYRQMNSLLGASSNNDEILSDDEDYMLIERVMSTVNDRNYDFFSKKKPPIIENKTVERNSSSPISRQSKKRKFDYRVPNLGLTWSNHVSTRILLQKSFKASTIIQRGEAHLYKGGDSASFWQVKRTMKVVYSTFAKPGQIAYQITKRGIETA

| Molecule | salt titration midpoint (mM NaCl (salt titration midpoint)) [1] | salt titration midpoint (mM NaCl (salt titration midpoint)) [2] | salt titration midpoint (mM NaCl (salt titration midpoint)) [3] | binding result [7] | also measured |
| --- | --- | --- | --- | --- | --- |
| PhiX174 viral ssDNA | 130 | 143 | 246 | – | – |
| PhiX174 RF1 dsDNA | 42 | 71 | 174 | – | – |
| AACGACGTTTGGTCAGTTCCATCAACATCATAGCCAGATGCCCAGAGATTAGAGCGCATGACAAGTAAAGGACGGTTGTCAGCGTCATAAGAGGTTTTAC [olWDH2086 100 nt ssDNA] | – | – | – | – | Kd [4]: 486 nM and 602 nM; Kd [5]: 339 nM and 402 nM; Kd [6]: 497 nM and 578 nM |
| B1 | – | – | – | binds | – |
| B2 | – | – | – | binds | – |
| B3 | – | – | – | binds | – |
